# Values quoted from earlier work as cited in paper PMC6844576.
# Molecular target: IL-6 receptor (Homo sapiens) (UniProt P08887)
# Assay: 125I-rhIL-6 radioligand binding
# Sequence of UniProt P08887 (P08887 20-365): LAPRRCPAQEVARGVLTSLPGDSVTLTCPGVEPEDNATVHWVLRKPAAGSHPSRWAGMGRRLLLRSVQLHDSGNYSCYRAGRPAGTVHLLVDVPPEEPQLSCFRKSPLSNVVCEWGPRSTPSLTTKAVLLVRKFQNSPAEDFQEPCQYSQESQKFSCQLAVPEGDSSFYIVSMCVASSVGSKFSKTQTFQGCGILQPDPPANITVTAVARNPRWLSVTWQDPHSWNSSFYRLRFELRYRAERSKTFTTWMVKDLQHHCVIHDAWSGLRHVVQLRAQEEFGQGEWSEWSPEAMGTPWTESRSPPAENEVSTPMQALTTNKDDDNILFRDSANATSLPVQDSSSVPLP
substance,measurement,value
interleukin-6 (from UniProt P05231),Kd,0.44 nM
